Source: FireProtDB (doi:10.1021/bi0512400)

Details: Capra hircus; pH 7.5; 25 °C; GdnHCl; CD; Tris 20 mM; Ca2+ 10 mM; whole UniProt chain shown

B1: Alpha-lactalbumin wild type, P00712 (protein)
chain: MMSFVSLLLVGILFHATQAEQLTKCEVFQKLKDLKDYGGVSLPEWVCTAFHTSGYDTQAIVQNNDSTEYGLFQINNKIWCKDDQNPHSRNICNISCDKFLDDDLTDDIVCAKKILDKVGINYWLAHKALCSEKLDQWLCEKL
With B1 as the protein, how does the denaturant m value read?
Its denaturant m value is 3 kcal/mol/M.

And the unfolding free energy?
The unfolding free energy was 10.2 kcal/mol.
